Patent US20220306719A1 (JULIUS MAXIMILIANS UNIVERSIT T W RZBURG, published 2022)
“And” between values parts separate entries of the source, which are not always exact repeats. Identical values can stand only once.

B1: anti-MiH antibody #1 (antibody, V domains shown)
VH: QVQLLESGPGLVAPSQTLSITCTVSGFSFTNYDLHWVRQPPGKGLEWLGVIWAVGSTNYNSALMSRLSISKDNSKSQVFLKMNSLQTDDTAIYYCAREEDYRYGMDYWGQGTSVTVSS
VL: ELVMTQSPLSLPVSLGDQASISCRSSQSLVHSNGNTYLHWYLQKPGQSPKLLIYKVSNRFSGVPDRFSGSGSGTDFTLKISRVEAEDLGVYFCSQSTHVPYTFGGGTKLEIK
B2: anti-MiH antibody #1-ADC (anti-MiH antibody #1 conjugated to an anthracycline-based cytotoxic payload) (antibody, V domains shown)
VH: B1 VH
VL: B1 VL
modifications: conjugated to an anthracycline-based cytotoxic payload (chain and site not stated)

What was measured:
Assay in all cases: cell-based or functional assay
[1] = molecular target: CD19_IgG3_MiH5 CAR (FMC63 scFv, IgG3_MiH5 spacer, CD28tm, 4-1BB/CD3zeta) (human)
Sequence of CD19_IgG3_MiH5 CAR (FMC63 scFv, IgG3_MiH5 spacer, CD28tm, 4-1BB/CD3zeta) (human) (chain, as listed by the source): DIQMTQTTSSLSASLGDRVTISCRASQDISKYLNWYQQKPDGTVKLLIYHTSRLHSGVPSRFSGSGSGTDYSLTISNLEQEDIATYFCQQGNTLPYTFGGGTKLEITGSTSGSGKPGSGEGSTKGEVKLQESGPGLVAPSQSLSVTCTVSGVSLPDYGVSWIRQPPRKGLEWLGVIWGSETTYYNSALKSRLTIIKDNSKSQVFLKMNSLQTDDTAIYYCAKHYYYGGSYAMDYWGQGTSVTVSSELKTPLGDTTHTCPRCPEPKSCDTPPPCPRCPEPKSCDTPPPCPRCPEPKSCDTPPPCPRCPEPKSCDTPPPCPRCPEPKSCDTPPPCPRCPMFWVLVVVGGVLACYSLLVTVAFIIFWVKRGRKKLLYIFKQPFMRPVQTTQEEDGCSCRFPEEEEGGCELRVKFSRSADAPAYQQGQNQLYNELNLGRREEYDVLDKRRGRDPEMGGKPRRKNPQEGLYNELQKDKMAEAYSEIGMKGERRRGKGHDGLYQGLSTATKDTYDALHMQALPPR

[2] = molecular target: CD19_IgG3_MiH4 CAR (FMC63 scFv, IgG3_MiH4 spacer, CD28tm, 4-1BB/CD3zeta) (human)
Sequence of CD19_IgG3_MiH4 CAR (FMC63 scFv, IgG3_MiH4 spacer, CD28tm, 4-1BB/CD3zeta) (human) (chain, as listed by the source): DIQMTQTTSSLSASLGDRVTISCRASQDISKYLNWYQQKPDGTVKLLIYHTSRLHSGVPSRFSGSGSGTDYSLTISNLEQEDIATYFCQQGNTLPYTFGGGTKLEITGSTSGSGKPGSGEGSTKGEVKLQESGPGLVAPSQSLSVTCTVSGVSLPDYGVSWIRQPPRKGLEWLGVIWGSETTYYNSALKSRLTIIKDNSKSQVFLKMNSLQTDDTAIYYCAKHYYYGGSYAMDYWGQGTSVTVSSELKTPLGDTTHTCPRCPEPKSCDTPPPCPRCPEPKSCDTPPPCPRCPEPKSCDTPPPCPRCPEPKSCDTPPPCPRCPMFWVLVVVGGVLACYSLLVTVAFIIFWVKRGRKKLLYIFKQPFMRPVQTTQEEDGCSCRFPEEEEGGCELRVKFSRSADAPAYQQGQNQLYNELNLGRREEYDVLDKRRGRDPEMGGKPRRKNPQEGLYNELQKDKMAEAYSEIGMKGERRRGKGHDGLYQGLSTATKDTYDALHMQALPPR

[3] = molecular target: CD19_IgG3_MiH3 CAR (FMC63 scFv, IgG3_MiH3 spacer, CD28tm, 4-1BB/CD3zeta) (human)
Sequence of CD19_IgG3_MiH3 CAR (FMC63 scFv, IgG3_MiH3 spacer, CD28tm, 4-1BB/CD3zeta) (human) (chain, as listed by the source): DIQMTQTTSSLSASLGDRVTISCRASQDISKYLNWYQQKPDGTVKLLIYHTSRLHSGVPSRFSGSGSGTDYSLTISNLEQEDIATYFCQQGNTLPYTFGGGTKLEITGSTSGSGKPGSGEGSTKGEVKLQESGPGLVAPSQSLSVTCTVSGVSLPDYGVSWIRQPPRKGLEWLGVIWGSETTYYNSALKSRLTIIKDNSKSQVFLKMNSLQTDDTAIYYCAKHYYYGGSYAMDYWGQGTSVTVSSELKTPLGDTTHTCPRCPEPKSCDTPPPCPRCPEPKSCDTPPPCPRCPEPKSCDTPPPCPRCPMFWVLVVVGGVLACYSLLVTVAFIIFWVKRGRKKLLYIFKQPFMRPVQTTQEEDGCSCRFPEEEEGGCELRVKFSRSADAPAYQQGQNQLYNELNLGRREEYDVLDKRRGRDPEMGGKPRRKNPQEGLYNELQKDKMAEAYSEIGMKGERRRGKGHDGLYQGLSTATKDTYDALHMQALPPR

[4] = molecular target: CD20_IgG3_MiH5/MiH3 CAR (advanced IgG3 format, Leu16 scFv)
Sequence of CD20_IgG3_MiH5/MiH3 CAR (advanced IgG3 format, Leu16 scFv) (chain, as listed by the source): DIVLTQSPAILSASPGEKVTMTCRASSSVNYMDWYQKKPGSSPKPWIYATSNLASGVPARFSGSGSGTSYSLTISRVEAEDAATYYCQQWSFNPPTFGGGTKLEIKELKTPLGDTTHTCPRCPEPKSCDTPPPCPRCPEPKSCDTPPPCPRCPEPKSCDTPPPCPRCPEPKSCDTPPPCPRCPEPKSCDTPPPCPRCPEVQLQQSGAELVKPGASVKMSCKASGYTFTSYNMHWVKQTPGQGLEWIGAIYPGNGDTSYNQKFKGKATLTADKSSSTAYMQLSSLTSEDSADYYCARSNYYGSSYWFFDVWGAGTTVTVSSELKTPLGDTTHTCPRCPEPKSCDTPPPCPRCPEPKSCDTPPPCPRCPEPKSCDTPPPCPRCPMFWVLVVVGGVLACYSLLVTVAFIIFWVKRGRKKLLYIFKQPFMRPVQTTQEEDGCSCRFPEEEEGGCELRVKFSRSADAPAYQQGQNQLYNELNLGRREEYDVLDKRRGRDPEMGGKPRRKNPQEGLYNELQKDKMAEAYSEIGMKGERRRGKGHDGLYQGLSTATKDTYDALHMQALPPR

[5] = molecular target: R11_IgG3_MiH3 CAR (ROR1-specific R11 scFv, IgG3_MiH3 spacer)
Sequence of R11_IgG3_MiH3 CAR (ROR1-specific R11 scFv, IgG3_MiH3 spacer) (chain, as listed by the source): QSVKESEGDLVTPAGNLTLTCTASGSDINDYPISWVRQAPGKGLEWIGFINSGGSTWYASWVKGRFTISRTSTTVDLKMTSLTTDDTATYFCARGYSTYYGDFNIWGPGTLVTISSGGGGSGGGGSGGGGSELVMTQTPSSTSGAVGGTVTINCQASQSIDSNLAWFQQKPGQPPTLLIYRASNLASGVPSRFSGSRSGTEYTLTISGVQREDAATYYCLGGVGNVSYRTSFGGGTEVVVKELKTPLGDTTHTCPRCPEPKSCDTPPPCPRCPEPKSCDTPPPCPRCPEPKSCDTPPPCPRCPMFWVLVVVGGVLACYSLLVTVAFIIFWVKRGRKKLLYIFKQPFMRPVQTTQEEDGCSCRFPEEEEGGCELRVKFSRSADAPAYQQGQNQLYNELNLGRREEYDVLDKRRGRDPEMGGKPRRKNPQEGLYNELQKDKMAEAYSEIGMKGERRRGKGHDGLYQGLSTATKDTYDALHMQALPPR

[6] = molecular target: R11_IgG3_MiH5/MiH3 CAR (advanced IgG3 format, ROR1-specific R11 scFv)
Sequence of R11_IgG3_MiH5/MiH3 CAR (advanced IgG3 format, ROR1-specific R11 scFv) (chain, as listed by the source): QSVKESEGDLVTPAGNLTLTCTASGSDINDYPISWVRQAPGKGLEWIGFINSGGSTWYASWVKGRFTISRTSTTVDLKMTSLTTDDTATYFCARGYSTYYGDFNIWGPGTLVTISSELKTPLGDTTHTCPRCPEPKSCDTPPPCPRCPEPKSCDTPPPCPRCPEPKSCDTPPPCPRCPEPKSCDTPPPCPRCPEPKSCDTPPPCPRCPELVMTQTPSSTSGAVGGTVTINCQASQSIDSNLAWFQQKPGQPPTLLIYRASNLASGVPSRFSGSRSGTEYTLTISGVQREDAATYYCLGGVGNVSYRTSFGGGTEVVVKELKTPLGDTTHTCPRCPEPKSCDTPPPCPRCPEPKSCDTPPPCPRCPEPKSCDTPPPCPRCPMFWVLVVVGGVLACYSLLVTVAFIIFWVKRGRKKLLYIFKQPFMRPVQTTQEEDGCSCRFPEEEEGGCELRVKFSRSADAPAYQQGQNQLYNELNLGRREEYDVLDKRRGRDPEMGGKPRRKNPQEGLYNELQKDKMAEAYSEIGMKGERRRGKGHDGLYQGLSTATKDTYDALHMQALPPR

[7] = molecular target: CD19_IgG3_MiH5/MiH1 CAR (advanced IgG3 format: FMC63 scFv with MiH5 linker between the variable domains, MiH1 …)
Sequence of CD19_IgG3_MiH5/MiH1 CAR (advanced IgG3 format: FMC63 scFv with MiH5 linker between the variable domains, MiH1 …) (chain, as listed by the source): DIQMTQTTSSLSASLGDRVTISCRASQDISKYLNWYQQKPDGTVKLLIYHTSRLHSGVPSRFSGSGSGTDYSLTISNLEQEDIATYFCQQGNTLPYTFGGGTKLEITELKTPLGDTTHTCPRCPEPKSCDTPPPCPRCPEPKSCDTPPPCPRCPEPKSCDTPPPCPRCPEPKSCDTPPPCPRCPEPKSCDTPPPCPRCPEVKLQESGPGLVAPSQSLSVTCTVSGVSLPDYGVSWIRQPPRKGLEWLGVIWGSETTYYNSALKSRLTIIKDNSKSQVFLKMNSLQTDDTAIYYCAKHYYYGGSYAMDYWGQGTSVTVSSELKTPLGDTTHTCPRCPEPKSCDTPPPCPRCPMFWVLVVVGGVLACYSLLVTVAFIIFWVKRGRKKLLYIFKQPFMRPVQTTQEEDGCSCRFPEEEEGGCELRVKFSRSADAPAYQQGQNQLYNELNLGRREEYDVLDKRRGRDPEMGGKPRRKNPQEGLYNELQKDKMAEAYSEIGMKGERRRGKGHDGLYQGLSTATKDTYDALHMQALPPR

[8] = molecular target: CD19_IgG3_MiH1 CAR (FMC63 scFv, IgG3_MiH1 spacer, CD28tm, 4-1BB/CD3zeta)
Sequence of CD19_IgG3_MiH1 CAR (FMC63 scFv, IgG3_MiH1 spacer, CD28tm, 4-1BB/CD3zeta) (chain, as listed by the source): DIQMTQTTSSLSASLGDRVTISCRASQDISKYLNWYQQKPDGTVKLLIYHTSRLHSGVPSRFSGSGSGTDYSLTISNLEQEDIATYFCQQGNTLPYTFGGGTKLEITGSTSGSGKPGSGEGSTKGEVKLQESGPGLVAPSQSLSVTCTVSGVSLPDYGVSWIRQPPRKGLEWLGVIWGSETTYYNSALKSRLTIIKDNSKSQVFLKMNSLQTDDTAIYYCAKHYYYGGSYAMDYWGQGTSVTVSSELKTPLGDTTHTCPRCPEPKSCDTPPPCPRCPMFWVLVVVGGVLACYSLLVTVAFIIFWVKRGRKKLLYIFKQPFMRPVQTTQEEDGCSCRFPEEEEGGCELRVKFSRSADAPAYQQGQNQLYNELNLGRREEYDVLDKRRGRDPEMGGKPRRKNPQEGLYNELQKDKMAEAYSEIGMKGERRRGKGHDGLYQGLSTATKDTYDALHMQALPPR

Row | Binder | expansion of CAR T cells after one week on plate-bound antibody [1] | expansion of CAR T cells after one week on plate-bound antibody [2] | increase in CAR T cell numbers after 7 days of stimulation on plate-bound antibody [3] | ADC concentration with the told effect on viable CAR T cells (72 h) [4] | ADC concentration with the told effect on viable CAR T cells (72 h) [5] | ADC concentration with the told effect on viable CAR T cells (72 h) [6] | ADC concentration with the told effect on viable CAR T cells (72 h) [7] | ADC concentration with the told effect on viable CAR T cells (72 h) [8] | ADC concentration with the told effect on viable CAR T cells (72 h) [1] | ADC concentration with the told effect on viable CAR T cells (72 h) [2] | ADC concentration with the told effect on viable CAR T cells (72 h) [3]
1 | B1 | 4 fold | 4 fold | > 2 fold |  |  |  |  |  |  |  | 
2 | B2 |  |  |  | 500 ng/mL and 5000 ng/mL | 500 ng/mL and 5000 ng/mL | 500 ng/mL and 5000 ng/mL | 5 µg/mL | 10 µg/mL | 50 ng/mL and 5000 ng/mL | 5 µg/mL | 5 µg/mL
